We go through 1 molecule from patent US20150355199A1 (ROCHE DIAGNOSTICS OPERATIONS, published 2015).

The target of experiment [1] is T1, native human complement factor H (CFH) (human, UniProt P08603 19-1231).
T1 construct: Native CFH; also called native CFH; serum-purified CFH
Put plainly: SPR (BiaCore), antibody captured by rabbit anti-mouse IgG on CM5 chip, antigen in solution. As to the method:
(§1) The antibodies MAB<CFH/CFHR1>M-L20/3, MAB<CFHR1>M-442127, MAB<CFHR1>M-4.1.3 and MAB<CFHR1>M-5.1.5 were analyzed on the BiaCore. The chip CM5 coated with a rabbit anti-Mouse IgG was used to bind the purified monoclonal mouse antibodies. In the next step native CFH or the recombinant CFHR1, CFHR2, CFHR3, CFHR4B or CFHR5 proteins according to SEQ ID No.: 9 to 13 were added to determine the binding affinities of the different antibodies.

Another experiment has as its target T2, CFHR5-GS-Avi-GS-His8 (human, UniProt Q9BXR6 19-569).
T2 construct: Tagged recombinant protein from HEK293 cells; also called recombinant CFHR5
T2 sequence: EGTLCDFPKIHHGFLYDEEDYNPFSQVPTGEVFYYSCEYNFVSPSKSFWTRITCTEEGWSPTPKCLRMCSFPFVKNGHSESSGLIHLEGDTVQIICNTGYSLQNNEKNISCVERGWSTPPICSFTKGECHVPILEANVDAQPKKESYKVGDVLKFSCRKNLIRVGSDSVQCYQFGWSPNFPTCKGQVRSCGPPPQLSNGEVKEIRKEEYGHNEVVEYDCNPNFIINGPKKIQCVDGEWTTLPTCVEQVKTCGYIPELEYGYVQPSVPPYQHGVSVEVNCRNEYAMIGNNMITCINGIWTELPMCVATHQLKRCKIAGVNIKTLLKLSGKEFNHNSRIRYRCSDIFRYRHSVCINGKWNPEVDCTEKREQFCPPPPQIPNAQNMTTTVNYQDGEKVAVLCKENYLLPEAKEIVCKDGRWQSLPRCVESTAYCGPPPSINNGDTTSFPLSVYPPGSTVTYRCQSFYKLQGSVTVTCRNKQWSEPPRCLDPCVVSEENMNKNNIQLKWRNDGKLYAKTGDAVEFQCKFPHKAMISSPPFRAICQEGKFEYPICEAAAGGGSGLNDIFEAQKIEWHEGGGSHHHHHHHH
The description is as above. How it is done:
as §1

In experiment [2] the target is T3, recombinant CFHR1-1-5 (tag-less, full-length mature human complement factor H-related protein 1) (human, UniProt Q03591 19-330).
T3 construct: also called recCFHR1
T3 sequence: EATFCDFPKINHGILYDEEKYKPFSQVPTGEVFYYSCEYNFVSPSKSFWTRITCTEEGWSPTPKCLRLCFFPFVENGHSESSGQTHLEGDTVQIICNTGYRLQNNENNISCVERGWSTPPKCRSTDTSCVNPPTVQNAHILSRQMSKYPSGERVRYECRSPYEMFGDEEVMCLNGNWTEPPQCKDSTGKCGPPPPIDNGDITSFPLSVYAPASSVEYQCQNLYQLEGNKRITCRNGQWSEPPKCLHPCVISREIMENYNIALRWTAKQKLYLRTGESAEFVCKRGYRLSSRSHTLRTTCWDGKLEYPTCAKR
Described as above. As to the method: as §1

For experiment [3], the target named is T4, CFHR4-GS-Avi-GS-His8 (CFHR4 Variant B) (human).
T4 construct: Tagged recombinant protein from HEK293 cells; also called CFHR4B; recombinant CFHR4B
T4 chain: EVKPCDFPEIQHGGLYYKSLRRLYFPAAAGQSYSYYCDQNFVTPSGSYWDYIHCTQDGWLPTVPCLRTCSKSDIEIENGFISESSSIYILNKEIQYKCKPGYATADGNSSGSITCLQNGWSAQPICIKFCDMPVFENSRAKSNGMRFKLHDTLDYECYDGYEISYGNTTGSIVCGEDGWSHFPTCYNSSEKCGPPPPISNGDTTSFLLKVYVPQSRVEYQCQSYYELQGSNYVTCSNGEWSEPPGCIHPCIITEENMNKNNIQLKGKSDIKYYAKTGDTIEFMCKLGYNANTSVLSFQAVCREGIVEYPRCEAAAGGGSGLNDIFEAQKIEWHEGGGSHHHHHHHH
As to the kind of experiment: SPR (BiaCore), antibody captured by rabbit anti-mouse IgG on CM5 chip; n.d. = not detectable. How it is done: as §1

A further experiment has as its target T5, CFHR3-GS-Avi-GS-His8 (human, UniProt Q02985 19-330).
T5 construct: Tagged recombinant protein from HEK293 cells; also called recombinant CFHR3
T5 sequence: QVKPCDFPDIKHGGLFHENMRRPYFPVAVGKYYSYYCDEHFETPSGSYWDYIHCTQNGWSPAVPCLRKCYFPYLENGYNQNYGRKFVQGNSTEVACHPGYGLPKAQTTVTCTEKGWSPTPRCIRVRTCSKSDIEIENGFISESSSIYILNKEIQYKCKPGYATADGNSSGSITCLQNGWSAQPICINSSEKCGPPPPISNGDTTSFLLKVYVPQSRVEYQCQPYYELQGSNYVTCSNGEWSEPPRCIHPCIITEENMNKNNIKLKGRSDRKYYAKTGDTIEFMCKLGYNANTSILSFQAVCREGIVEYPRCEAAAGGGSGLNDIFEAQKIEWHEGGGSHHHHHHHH
Described as above. How it is done:
as §1

The next experiment deals with T6, CFHR2-GS-Avi-GS-His8 (human).
T6 construct: Tagged recombinant protein from HEK293 cells; also called recombinant CFHR2
T6 chain: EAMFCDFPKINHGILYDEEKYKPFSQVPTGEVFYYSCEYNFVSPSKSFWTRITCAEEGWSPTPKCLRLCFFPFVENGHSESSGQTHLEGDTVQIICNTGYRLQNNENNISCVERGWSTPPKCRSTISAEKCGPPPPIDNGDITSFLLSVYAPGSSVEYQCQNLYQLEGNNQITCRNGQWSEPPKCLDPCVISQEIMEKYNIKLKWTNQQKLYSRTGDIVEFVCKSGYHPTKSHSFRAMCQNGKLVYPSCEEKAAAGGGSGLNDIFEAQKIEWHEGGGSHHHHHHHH
The description is as above. How it is done: as §1

The next experiment deals with T7, CFHL1-GS-Avi-GS-His8 (human, UniProt P08603 19-445).
T7 construct: also called complement factor H isoform 2
The experiment is described as above. How it is done:
as §1

B1: MAB<CFH/CFHR1>M-L20/3 (antibody, V domains shown)
VH: EVLLQQSGPELVKPGASVKIPCKASGYTFTDYNMDWVKQSHGKSLEWIGDINPNNGFTIYNQKFKGKATLTVDKSSSTAYMELRSLTSEDTAIYYCAINWDWFAYWGQGTLVTVSA
VL: DVLMTQTPLSLPVSLGDQASISCRSSQSIVHNNGNTYLEWYLLKPGQSPKLLIYKVSNRFSGVPDRFSGSGSGTDFTLKISRVEAEDLGVYYCFQGSHVPYTFGGGTKLEIKR
notes: Bought monoclonal mouse IgG; also called anti-Complement Factor H, Clone: L20/3; Thermo Scientific cat. no; GAU 020-03-02
Turning to B1, the Kd in experiment [1] turned out to be 8 nM; in the experiment with CFHR5-GS-Avi-GS-His8, 10 nM; in experiment [2] it was 0.1 nM. Besides, the binding result (in experiment [3]; with CFHR3-GS-Avi-GS-His8; with CFHR2-GS-Avi-GS-His8; in the experiment with CFHL1-GS-Avi-GS-His8) was “no binding” each time.
